Experimental data published in PMC7015813 (Nature structural & molecular biology, 2020).
One block for each binder: values may come before it.

B4: mouse RAG1 (aa 265-1040), catalytically inactive E962Q mutant (enzyme, UniProt P15919 265-1040, looked up)
chain: NCSKIHLSTKLLAVDFPAHFVKSISCQICEHILADPVETSCKHLFCRICILRCLKVMGSYCPSCRYPCFPTDLESPVKSFLNILNSLMVKCPAQDCNEEVSLEKYNHHVSSHKESKETLVHINKGGRPRQHLLSLTRRAQKHRLRELKIQVKEFADKEEGGDVKAVCLTLFLLALRARNEHRQADELEAIMQGRGSGLQPAVCLAIRVNTFLSCSQYHKMYRTVKAITGRQIFQPLHALRNAEKVLLPGYHPFEWQPPLKNVSSRTDVGIIDGLSGLASSVDEYPVDTIAKRFRYDSALVSALMDMEEDILEGMRSQDLDDYLNGPFTVVVKESCDGMGDVSEKHGSGPAVPEKAVRFSFTVMRITIEHGSQNVKVFEEPKPNSELCCKPLCLMLADESDHETLTAILSPLIAEREAMKSSELTLEMGGIPRTFKFIFRGTGYDEKLVREVEGLEASGSVYICTLCDTTRLEASQNLVFHSITRSHAENLQRYEVWRSNPYHESVEELRDRVKGVSAKPFIETVPSIDALHCDIGNAAEFYKIFQLEIGEVYKHPNASKEERKRWQATLDKHLRKRMNLKPIMRMNGNFARKLMTQETVDAVCELIPSEERHEALRELMDLYLKMKPVWRSSCPAKECPESLCQYSFNSQRFAELLSTKFKYRYEGKITNYFHKTLAHVPEIIERDGSIGAWASEGNQSGNKLFRRFRKMNARQSKCYEMEDVLKHHWLYTSKYLQKFMNAHNALKSSGFTMNSKETLGDPLGIEDSLESQDSMEF

How the values were obtained:
[1] = target: T1, WT core mouse RAG1 (aa 384-1008) (mouse), P15919; experiment: crystal structure; settings: remark: other sources report otherwise
T1 chain: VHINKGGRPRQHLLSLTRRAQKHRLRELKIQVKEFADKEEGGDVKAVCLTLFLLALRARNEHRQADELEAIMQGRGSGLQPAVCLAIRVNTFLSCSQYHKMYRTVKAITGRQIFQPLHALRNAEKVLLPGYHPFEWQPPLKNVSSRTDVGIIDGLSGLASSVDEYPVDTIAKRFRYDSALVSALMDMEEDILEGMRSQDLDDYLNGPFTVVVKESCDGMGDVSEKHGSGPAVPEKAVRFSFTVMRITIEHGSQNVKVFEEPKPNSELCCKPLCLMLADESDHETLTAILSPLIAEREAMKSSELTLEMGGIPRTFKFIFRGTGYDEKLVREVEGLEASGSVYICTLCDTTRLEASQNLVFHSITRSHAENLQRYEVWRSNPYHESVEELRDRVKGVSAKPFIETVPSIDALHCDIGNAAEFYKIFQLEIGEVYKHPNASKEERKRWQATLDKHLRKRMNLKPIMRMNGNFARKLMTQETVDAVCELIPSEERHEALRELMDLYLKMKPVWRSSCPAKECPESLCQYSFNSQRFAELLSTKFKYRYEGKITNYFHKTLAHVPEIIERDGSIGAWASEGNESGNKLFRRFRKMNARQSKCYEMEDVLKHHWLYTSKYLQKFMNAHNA

[2] = target: T2, WT core mouse RAG1 (aa 384-1008) (mouse, UniProt P15919 384-1008); experiment: crystal structure
T2 sequence (looked up): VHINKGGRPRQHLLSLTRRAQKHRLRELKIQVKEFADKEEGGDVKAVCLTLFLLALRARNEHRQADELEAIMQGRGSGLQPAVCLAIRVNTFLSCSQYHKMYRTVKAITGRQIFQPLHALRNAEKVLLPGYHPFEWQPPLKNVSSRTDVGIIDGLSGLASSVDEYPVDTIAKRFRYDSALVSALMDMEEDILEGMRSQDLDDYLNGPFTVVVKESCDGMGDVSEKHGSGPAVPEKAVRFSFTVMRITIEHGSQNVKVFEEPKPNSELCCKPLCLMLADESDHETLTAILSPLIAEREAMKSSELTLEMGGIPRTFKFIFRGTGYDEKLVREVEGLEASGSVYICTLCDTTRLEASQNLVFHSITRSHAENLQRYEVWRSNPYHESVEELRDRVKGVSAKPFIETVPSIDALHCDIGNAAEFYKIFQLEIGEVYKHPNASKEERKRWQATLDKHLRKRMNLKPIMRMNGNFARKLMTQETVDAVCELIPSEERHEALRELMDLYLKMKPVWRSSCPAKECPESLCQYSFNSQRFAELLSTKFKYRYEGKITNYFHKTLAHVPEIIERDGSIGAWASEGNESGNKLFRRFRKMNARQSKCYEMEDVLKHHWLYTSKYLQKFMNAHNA

[3] = target: B4; experiment: cryo-EM structure
cryo-EM structure = target: the molecule itself; experiment: cryo-EM structure

- stoichiometry N [1]: 2
B1: WT core mouse RAG1 (aa 384-1008), P15919 384-1008 (enzyme)
chain: VHINKGGRPRQHLLSLTRRAQKHRLRELKIQVKEFADKEEGGDVKAVCLTLFLLALRARNEHRQADELEAIMQGRGSGLQPAVCLAIRVNTFLSCSQYHKMYRTVKAITGRQIFQPLHALRNAEKVLLPGYHPFEWQPPLKNVSSRTDVGIIDGLSGLASSVDEYPVDTIAKRFRYDSALVSALMDMEEDILEGMRSQDLDDYLNGPFTVVVKESCDGMGDVSEKHGSGPAVPEKAVRFSFTVMRITIEHGSQNVKVFEEPKPNSELCCKPLCLMLADESDHETLTAILSPLIAEREAMKSSELTLEMGGIPRTFKFIFRGTGYDEKLVREVEGLEASGSVYICTLCDTTRLEASQNLVFHSITRSHAENLQRYEVWRSNPYHESVEELRDRVKGVSAKPFIETVPSIDALHCDIGNAAEFYKIFQLEIGEVYKHPNASKEERKRWQATLDKHLRKRMNLKPIMRMNGNFARKLMTQETVDAVCELIPSEERHEALRELMDLYLKMKPVWRSSCPAKECPESLCQYSFNSQRFAELLSTKFKYRYEGKITNYFHKTLAHVPEIIERDGSIGAWASEGNESGNKLFRRFRKMNARQSKCYEMEDVLKHHWLYTSKYLQKFMNAHNA

- binding result [2]: binds
B2: WT core mouse RAG2 (aa 1-359) (domain or fragment, UniProt P21784 1-359, looked up)
chain: MSLQMVTVGHNIALIQPGFSLMNFDGQVFFFGQKGWPKRSCPTGVFHFDIKQNHLKLKPAIFSKDSCYLPPLRYPATCSYKGSIDSDKHQYIIHGGKTPNNELSDKIYIMSVACKNNKKVTFRCTEKDLVGDVPEPRYGHSIDVVYSRGKSMGVLFGGRSYMPSTQRTTEKWNSVADCLPHVFLIDFEFGCATSYILPELQDGLSFHVSIARNDTVYILGGHSLASNIRPANLYRIRVDLPLGTPAVNCTVLPGGISVSSAILTQTNNDEFVIVGGYQLENQKRMVCSLVSLGDNTIEISEMETPDWTSDIKHSKIWFGSNMGNGTIFLGIPGDNKQAMSEAFYFYTLRCSEEDLSEDQ

- binding result [3]: binds
B3: mouse RAG2 (aa 1-520), degradation resistant T490A mutant (natural protein, UniProt P21784 1-520, looked up)
chain: MSLQMVTVGHNIALIQPGFSLMNFDGQVFFFGQKGWPKRSCPTGVFHFDIKQNHLKLKPAIFSKDSCYLPPLRYPATCSYKGSIDSDKHQYIIHGGKTPNNELSDKIYIMSVACKNNKKVTFRCTEKDLVGDVPEPRYGHSIDVVYSRGKSMGVLFGGRSYMPSTQRTTEKWNSVADCLPHVFLIDFEFGCATSYILPELQDGLSFHVSIARNDTVYILGGHSLASNIRPANLYRIRVDLPLGTPAVNCTVLPGGISVSSAILTQTNNDEFVIVGGYQLENQKRMVCSLVSLGDNTIEISEMETPDWTSDIKHSKIWFGSNMGNGTIFLGIPGDNKQAMSEAFYFYTLRCSEEDLSEDQKIVSNSQTSTEDPGDSTPFEDSEEFCFSAEATSFDGDDEFDTYNEDDEDDESVTGYWITCCPTCDVDINTWVPFYSTELNKPAMIYCSHGDGHWVHAQCMDLEERTLIHLSEGSNKYYCNEHVQIARALQAPKRNPPLQKPPMKSLHKKGSGKVLTPAKKS

Binder: B4
- binding result (cryo-EM structure): binds

B5: mouse RAG1 (aa 265-1040), wild type (enzyme, UniProt P15919 265-1040, looked up)
chain: NCSKIHLSTKLLAVDFPAHFVKSISCQICEHILADPVETSCKHLFCRICILRCLKVMGSYCPSCRYPCFPTDLESPVKSFLNILNSLMVKCPAQDCNEEVSLEKYNHHVSSHKESKETLVHINKGGRPRQHLLSLTRRAQKHRLRELKIQVKEFADKEEGGDVKAVCLTLFLLALRARNEHRQADELEAIMQGRGSGLQPAVCLAIRVNTFLSCSQYHKMYRTVKAITGRQIFQPLHALRNAEKVLLPGYHPFEWQPPLKNVSSRTDVGIIDGLSGLASSVDEYPVDTIAKRFRYDSALVSALMDMEEDILEGMRSQDLDDYLNGPFTVVVKESCDGMGDVSEKHGSGPAVPEKAVRFSFTVMRITIEHGSQNVKVFEEPKPNSELCCKPLCLMLADESDHETLTAILSPLIAEREAMKSSELTLEMGGIPRTFKFIFRGTGYDEKLVREVEGLEASGSVYICTLCDTTRLEASQNLVFHSITRSHAENLQRYEVWRSNPYHESVEELRDRVKGVSAKPFIETVPSIDALHCDIGNAAEFYKIFQLEIGEVYKHPNASKEERKRWQATLDKHLRKRMNLKPIMRMNGNFARKLMTQETVDAVCELIPSEERHEALRELMDLYLKMKPVWRSSCPAKECPESLCQYSFNSQRFAELLSTKFKYRYEGKITNYFHKTLAHVPEIIERDGSIGAWASEGNESGNKLFRRFRKMNARQSKCYEMEDVLKHHWLYTSKYLQKFMNAHNALKSSGFTMNSKETLGDPLGIEDSLESQDSMEF
- binding result (cryo-EM structure): binds
